Data taken from ChEMBL document CHEMBL1127724, “Design and synthesis of 6-fluoropurine acyclonucleosides : potential prodrugs of acyclovir and ganciclovir” (Bioorg Med Chem Lett, 1994).

Tests used:
[1] = substrate: Nc1ncnc2c1ncn2[C@@H]1O[C@H](CO)[C@@H](O)[C@H]1O; test: Michaelis-Menten constant for Calf intestinal mucosa adenosine deaminase was determined
[2] = substrate: Nc1ncnc2c1ncn2[C@@H]1O[C@H](CO)[C@@H](O)[C@H]1O; test: Vmax for Calf intestinal mucosa adenosine deaminase was determined

B1: Adenosine deaminase (Bos taurus), P56658 (protein)
chain: MAQTPAFNKPKVELHVHLDGAIKPETILYYGRKRGIALPADTPEELQNIIGMDKPLSLPEFLAKFDYYMPAIAGCREAVKRIAYEFVEMKAKDGVVYVEVRYSPHLLANSKVEPIPWNQAEGDLTPDEVVSLVNQGLQEGERDFGVKVRSILCCMRHQPSWSSEVVELCKKYREQTVVAIDLAGDETIEGSSLFPGHVKAYAEAVKSGVHRTVHAGEVGSANVVKEAVDTLKTERLGHGYHTLEDATLYNRLRQENMHFEVCPWSSYLTGAWKPDTEHPVVRFKNDQVNYSLNTDDPLIFKSTLDTDYQMTKNEMGFTEEEFKRLNINAAKSSFLPEDEKKELLDLLYKAYGMPSPASAEQCL
Km [1]: 50.5 µM | Vmax (uM min-1 unit-1) [2]: 0.76
